Laboratory results taken from publication PMC8285524, “Selective targeting of ligand-dependent and -independent signaling by GPCR conformation-specific anti-US28 intrabodies” (Nature Communications, 2021).

Columns and labels:
[1] = target: NLuc-US28-Nb7 (human cytomegalovirus (HCMV)) (UniProt P69332); experiment: FRET or BRET; BRET-based saturation binding of Alexa647-labeled chemokine (0.1 pM-10 nM) to 100 ng membranes with NLuc-US28 constructs; HBSS with 0.05% BSA, 1 h at RT, 10 µM furimazine
[2] = target: NLuc-US28-VUN103 (human cytomegalovirus (HCMV)) (UniProt P69332); experiment: as above
[3] = target: NLuc-US28-Irr Nb (human cytomegalovirus (HCMV)) (UniProt P69332); experiment: as above
[4] = target: NLuc-US28 WT (human cytomegalovirus (HCMV)), P69332; experiment: as above
[5] = target: T1, US28 wildtype (human cytomegalovirus (HCMV), UniProt P69332 1-354, Strain: VHL/E is stated for some constructs, but its sequence is neither printed nor among the candidates. The AD169 entry is used as the closest wild type, so a few strain-specific residues may diffe); experiment: radioligand binding; as a1, displacement of 125I-CCL5, membranes of HEK293T cells co-expressing US28 WT and the intrabody VUN103-mVenus; settings: one partner purified
T1 chain: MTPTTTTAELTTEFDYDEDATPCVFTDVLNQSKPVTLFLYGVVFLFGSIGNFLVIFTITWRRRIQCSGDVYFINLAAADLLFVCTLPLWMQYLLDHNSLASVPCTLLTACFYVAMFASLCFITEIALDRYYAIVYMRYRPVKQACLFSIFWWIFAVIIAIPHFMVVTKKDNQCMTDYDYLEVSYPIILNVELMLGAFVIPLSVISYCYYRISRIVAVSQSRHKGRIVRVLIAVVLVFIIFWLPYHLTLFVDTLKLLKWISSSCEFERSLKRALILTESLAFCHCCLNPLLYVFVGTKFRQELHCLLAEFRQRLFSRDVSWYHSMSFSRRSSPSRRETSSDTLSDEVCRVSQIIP

[6] = target: T1, US28 wildtype; experiment: radioligand binding; as a1, displacement of 125I-CCL5, membranes of HEK293T cells co-expressing US28 WT and the intrabody Nb7-mVenus; settings: one partner purified
[7] = target: T1, US28 wildtype; experiment: radioligand binding; displacement of 100 pM 125I-CX3CL1 or 200 pM 125I-CCL5 from 3 µg US28-expressing membranes (no intrabody) by unlabeled ligand; HEPES binding buffer pH 7.4, 0.1 M NaCl, 0.5% BSA; 2 h at room temperature; GF/C filtration; settings: one partner purified

Molecule: CX3CL1-Alexa647 (from UniProt P78423 25-341) (ligand)
- pKD [1]: 10.4
- pKD [2]: 9.6
- pKD [3]: 9.6

B1: CX3CL1-Alexa647, P78423 25-341 (ligand)
chain: QHHGVTKCNITCSKMTSKIPVALLIHYQQNQASCGKRAIILETRQHRLFCADPKEQWVKDAMQHLDRQAAALTRNGGTFEKQIGEVKPRTTPAAGGMDESVVLEPEATGESSSLEPTPSSQEAQRALGTSPELPTGVTGSSGTRLPPTPKAQDGGPVGTELFRVPPVSTAATWQSSAPHQPGPSLWAEAKTSEAPSTQDPSTQASTASSPAPEENAPSEGQRVWGQGQSPRPENSLEREEMGPVPAHTDAFQDWGPGSMAHVSVVPVSSEGTPSREPVASGSWTPKAEEPIHATMDPQRLGVLITPVPDAQAATRRQ
modifications: here or on the partner: Alexa Fluor 647 label
- pKD [4]: 9.6

B2: CX3CL1 (unlabeled) (ligand, UniProt P78423 25-341, looked up)
chain: QHHGVTKCNITCSKMTSKIPVALLIHYQQNQASCGKRAIILETRQHRLFCADPKEQWVKDAMQHLDRQAAALTRNGGTFEKQIGEVKPRTTPAAGGMDESVVLEPEATGESSSLEPTPSSQEAQRALGTSPELPTGVTGSSGTRLPPTPKAQDGGPVGTELFRVPPVSTAATWQSSAPHQPGPSLWAEAKTSEAPSTQDPSTQASTASSPAPEENAPSEGQRVWGQGQSPRPENSLEREEMGPVPAHTDAFQDWGPGSMAHVSVVPVSSEGTPSREPVASGSWTPKAEEPIHATMDPQRLGVLITPVPDAQAATRRQ
notes: CX3CL1 (fractalkine), chemokine ligand of US28; also called fractalkine; source: bought: PeproTech (stated for the BRET assays)
- pKi [5]: 9.7
- pKi [6]: 10.7
- pKi [7]: 9.9
